First the molecules themselves.
B1: YES (endogenous, from RA FLS lysates) (enzyme)
chain: not shown
B2: S-tagged-iPTPκ-D1051A, substrate-trapping mutant of the catalytic domain of RPTPκ (aa865-1156 of NP_002835.2) (enzyme, not shown: small tags and cut ends)
chain: HPAIRVADLLQHINLMKTSDSYGFKEEYESFFEGQSASWDVAKKDQNRAKNRYGNIIAYDHSRVILQPVEDDPSSDYINANYIDGYQRPSHYIATQGPVHETVYDFWRMIWQEQSACIVMVTNLVEVGRVKCYKYWPDDTEVYGDFKVTCVEMEPLAEYVVRTFTLERRGYNEIREVKQFHFTGWPAHGVPYHATGLLSFIRRVKLSNPPSAGPIVVHCSAGAGRTGCYIVIDIMLDMAEREGVVDIYNCVKALRSRRINMVQTEEQYIFIHDAILEACLCGETAIPVCEFK
notes: Numbering counts on NP_002835.2, which may differ from the canonical UniProt isoform; also called iPTPk-D1051A; iPTPK-D1051A

The target of experiment [1] is T1, C-terminally HA-tagged wild type (WT) RPTPκ (NM 008983.2), full-length, immunoprecipitated from COS-1 cells (UniProt P35822 26-1457).
T1 construct: It was held on anti-HA immunoprecipitate beads in the assay; also called HA-tagged WT RPTPκ; full-length RPTPk; not shown: C-terminal HA tag
T1 sequence (looked up): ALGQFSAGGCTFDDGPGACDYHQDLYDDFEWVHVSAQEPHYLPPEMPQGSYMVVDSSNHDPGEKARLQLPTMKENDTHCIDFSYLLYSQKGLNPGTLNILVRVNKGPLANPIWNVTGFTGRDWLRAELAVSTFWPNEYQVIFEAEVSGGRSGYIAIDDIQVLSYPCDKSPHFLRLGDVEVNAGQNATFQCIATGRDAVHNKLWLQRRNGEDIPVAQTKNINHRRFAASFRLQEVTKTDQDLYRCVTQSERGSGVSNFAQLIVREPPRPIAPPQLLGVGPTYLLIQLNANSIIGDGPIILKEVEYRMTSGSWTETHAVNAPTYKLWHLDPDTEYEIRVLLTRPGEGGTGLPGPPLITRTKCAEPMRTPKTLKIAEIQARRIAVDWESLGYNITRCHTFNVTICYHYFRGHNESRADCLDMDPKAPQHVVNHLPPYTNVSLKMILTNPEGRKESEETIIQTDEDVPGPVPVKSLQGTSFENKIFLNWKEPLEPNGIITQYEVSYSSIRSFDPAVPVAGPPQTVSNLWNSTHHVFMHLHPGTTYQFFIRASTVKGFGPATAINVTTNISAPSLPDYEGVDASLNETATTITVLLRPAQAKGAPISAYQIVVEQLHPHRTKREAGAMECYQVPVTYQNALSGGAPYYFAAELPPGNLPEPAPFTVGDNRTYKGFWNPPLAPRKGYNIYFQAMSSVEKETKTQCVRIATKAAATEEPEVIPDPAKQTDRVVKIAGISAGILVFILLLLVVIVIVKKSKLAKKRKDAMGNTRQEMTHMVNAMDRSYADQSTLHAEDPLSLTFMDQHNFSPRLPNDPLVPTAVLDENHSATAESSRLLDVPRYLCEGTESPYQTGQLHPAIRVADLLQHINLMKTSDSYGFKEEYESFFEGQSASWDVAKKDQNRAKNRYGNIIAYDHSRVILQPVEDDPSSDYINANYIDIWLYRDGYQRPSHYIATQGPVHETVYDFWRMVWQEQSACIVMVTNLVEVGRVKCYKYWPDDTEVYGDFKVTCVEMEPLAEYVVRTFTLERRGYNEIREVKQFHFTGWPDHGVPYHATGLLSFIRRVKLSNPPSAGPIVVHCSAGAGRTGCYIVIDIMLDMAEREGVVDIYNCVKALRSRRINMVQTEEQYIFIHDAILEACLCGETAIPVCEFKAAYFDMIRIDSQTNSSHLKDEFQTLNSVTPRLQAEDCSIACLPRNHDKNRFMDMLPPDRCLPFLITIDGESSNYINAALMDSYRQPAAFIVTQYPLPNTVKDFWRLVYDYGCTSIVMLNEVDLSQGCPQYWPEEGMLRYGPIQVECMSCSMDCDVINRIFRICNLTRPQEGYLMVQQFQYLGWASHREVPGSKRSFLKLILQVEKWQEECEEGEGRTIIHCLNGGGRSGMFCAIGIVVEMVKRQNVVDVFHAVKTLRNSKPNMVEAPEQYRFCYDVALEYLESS
Nature of the experiment: pull-down of RA FLS lysates with immunoprecipitated HA-tagged RPTPκ, Western blotting. As to the method: In vitro Pull-Down Assay. HA-tagged WT RPTPκ was overexpressed in COS-1 cells. Cells were lysed in THE buffer (20 mM Tris-HCl pH 7.5, 150 mM NaCl, 5 mM EDTA pH 8.0 and 1% NP-40) containing 10 μg/mL aprotinin, 10 μg/mL leupeptin, 10 μg/mL soybean trypsin inhibitor, and 1 mM phenylmethylsulfonyl fluoride. RPTPκ was immunoprecipitated using anti-HA antibody (Covance, Princeton, N.J.). RA FLS were lysed in RIPA buffer containing 10 μg/mL aprotinin, 10 μg/mL leupeptin, 10 μg/mL soybean trypsin inhibitor, 1 mM phenylmethylsulfonyl fluoride and 5 mM iodoacetamide. Lysates were treated with 10 mM dithiothreitol for 10 min, and then diluted 10-fold in buffer containing 25 mM Tris-HCl pH 7.6, 150 mM NaCl and 1 mM ethylenediaminetetraacetic acid. Immunoprecipitates were incubated with RA FLS lysates for 3 hr at 4° C., washed in the dilution buffer, and subjected to Western blotting.
We next investigated if RPTPk directly interacts with and/or dephosphorylates SFKs. HA-tagged RPTPκ was immunoprecipitated from COS-1 cells and incubated in vitro with RA FLS lysates, and pull-down was subjected to Western blotting. Both full-length RPTPk immunoprecipitated from COS-1 cells and a recombinant substrate-trapping mutant of the RPTPk catalytic domain (iPTPk-D1051A) precipitated SRC from RA FLS lysates in pull-down assays, but not YES or FYN (SFKs also expressed in FLS).
For orientation: A western blot detects proteins with antibodies after separation by electrophoresis.

The target in experiment [2] is B1. Put plainly: substrate-trapping pull-down of RA FLS lysates with agarose-bound S-tagged iPTPκ-D1051A, Western blotting. As to the method:
(§1) Accordingly, cDNA (codon optimized for expression in E. coli [Genscript, Piscataway, N.J.]) encoding a substrate-trapping mutant of the catalytic domain of RPTPκ (iPTPK-D1051A, aa865-1156 of NP_002835.2) was cloned into the pET30c vector. S-tagged-iPTPK-D1051A was isolated from E. coli using S-protein agarose (EMD Millipore). RA FLS were lysed in RIPA buffer containing 10 μg/mL aprotinin, 10 μg/mL leupeptin, 10 μg/mL soybean trypsin inhibitor, 1 mM phenylmethylsulfonyl fluoride and 5 mM iodoacetamide. Lysates were treated with 10 mM dithiothreitol for 10 min, and then diluted 10-fold in buffer containing 25 mM Tris-HCl pH 7.6, 150 mM NaCl and 1 mM ethylenediaminetetraacetic acid. Agarose-bound S-tagged-iPTPκ-D1051A was incubated with RA FLS lysates for 3 hr at 4° C., washed in the dilution buffer, and subjected to Western blotting.

Experiment [3] concerns the target FYN (endogenous, from RA FLS lysates) (human, UniProt P06241 2-537, limits assumed). The experiment is described as above. Here is the method: as §1

Chain of FYN (endogenous, from RA FLS lysates) (P06241 2-537 limits assumed): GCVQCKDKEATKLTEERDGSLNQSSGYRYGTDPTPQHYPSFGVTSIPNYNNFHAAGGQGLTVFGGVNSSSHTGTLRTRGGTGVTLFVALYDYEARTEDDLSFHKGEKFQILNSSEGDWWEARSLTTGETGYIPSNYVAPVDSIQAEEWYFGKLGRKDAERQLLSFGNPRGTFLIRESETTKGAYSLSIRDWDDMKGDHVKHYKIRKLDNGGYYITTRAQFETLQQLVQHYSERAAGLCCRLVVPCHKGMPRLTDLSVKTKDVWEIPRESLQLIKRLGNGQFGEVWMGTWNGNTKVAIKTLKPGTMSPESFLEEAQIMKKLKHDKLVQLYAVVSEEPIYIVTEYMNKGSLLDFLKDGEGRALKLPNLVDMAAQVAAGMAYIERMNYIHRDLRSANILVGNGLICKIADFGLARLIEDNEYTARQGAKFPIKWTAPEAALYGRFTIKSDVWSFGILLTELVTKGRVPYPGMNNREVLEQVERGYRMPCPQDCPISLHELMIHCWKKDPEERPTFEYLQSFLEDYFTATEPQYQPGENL

For the molecule B1, the binding result in experiment [1] is listed as “no binding”.

On to B2, for which the binding result in experiment [2] and in experiment [3] was “no binding” in each case.

The record behind these values is patent US20160122768A1 (LA JOLLA INSTITUTE FOR ALLERGY AND IMMUNOLOGY, published 2016).
